For orientation: Ki means the equilibrium dissociation constant of an inhibitor or competing ligand from its target.

Numbered stars: 1 amine (or outer) side, 2 acyl side, 3 side chain; on linkers, the order of the positions; unused ones are H or OH. Bridge positions count the residues as written; N and C are the ends. Ends that are not written are not given here. TATA = O=C(CC[*:1])N1CN(C(=O)CC[*:2])CN(C(=O)CC[*:3])C1

For the first test, the target named is T1, human carbonic anhydrase IX (human, UniProt Q16790 38-414). The test is described as follows: cell-based or functional assay.
Turning to ACGDCIWVDGWVCA (linker 2-5-13 via TATA) [61-25-01-N001], the “Enzyme IC50” value was determined as 939 nM. Same read-out and setting: as for ACSSECIWVDGWVCA (linker 2-6-14 via TATA) [61-30-01-N001], the figure is 1330 nM.

A further test concerns the target T1, human carbonic anhydrase IX. In words: competition fluorescence polarisation, fluorescent ligand (SEQ ID NO: 18)-Sar6-K(FI). (In fluorescence polarisation assays a small probe gives low polarisation when free and higher when bound to something large.)
Molecule ACGRCTWVDGWICA (linker 2-5-13 via TATA) [61-27-00-N001] came in with an inhibition constant Ki of 1610 nM.

With ACGACTWADGWVCA (linker 2-5-13 via TATA) [61-25-00-N001], affinity was put at a Ki of 2280 nM.

Molecule ACLSHCLWVDGWVCA (linker 2-6-14 via TATA) [61-31-00-N001] registered a Ki of 326 nM.

For the molecule ACGDCIWVDGWVCA (linker 2-5-13 via TATA) [61-25-01-N001], the Ki was 26.5 nM. Still for that read-out and setting: the same measure for ACGLCIWVDGWVCA (linker 2-5-13 via TATA) [61-26-00-N001]: 51 nM. Still for that read-out and setting: as for ACRDCIWVDGWVCA (linker 2-5-13 via TATA) [61-25-02-N001], the figure is 30 nM.

For the molecule ACVECWADGWVNCA (linker 2-5-13 via TATA) [61-29-00-N001], the Ki is 129 nM. On the same count and under the same terms, the same measure for ACTETCIWVDGWVCA (linker 2-6-14 via TATA) [61-30-02-N001]: 193 nM; for ACTDCIWVDGWMCA (linker 2-5-13 via TATA) [61-28-00-N001]: 442 nM. ACVDCVWVDGWVCA (linker 2-5-13 via TATA) [61-25-03-N001] showed a Ki of 70.5 nM.

On to ACHAHCLWVDGWVCA (linker 2-6-14 via TATA) [61-30-00-N001], for which the Ki stood at 103 nM. Regarding ACSSECIWVDGWVCA (linker 2-6-14 via TATA) [61-30-01-N001], the inhibition constant Ki came to 99.5 nM. On the same count and under the same terms, the same measure for ACANNCIWVDGWVCA (linker 2-6-14 via TATA) [61-30-03-N001]: 158 nM.

These data come from patent US20220088118A1 (Bicycle, published 2022).
